Test results from publication PMC13036491, “RNA binding protein Musashi1 interacts with the viral genomic RNA and restricts SARS-CoV-2 infection by repressing translation”.

Biological target: GST-Msi1 (Homo sapiens, UniProt O43347 1-362)
Assay: EMSA; GST-Msi1 ~1.5-9 uM; dose-dependent
Conditions: protein: recombinant; tags: N-terminal GST (pGEX 5X-2); label: fluorescein-12-UTP

Sequence of GST-Msi1 (O43347 whole entry): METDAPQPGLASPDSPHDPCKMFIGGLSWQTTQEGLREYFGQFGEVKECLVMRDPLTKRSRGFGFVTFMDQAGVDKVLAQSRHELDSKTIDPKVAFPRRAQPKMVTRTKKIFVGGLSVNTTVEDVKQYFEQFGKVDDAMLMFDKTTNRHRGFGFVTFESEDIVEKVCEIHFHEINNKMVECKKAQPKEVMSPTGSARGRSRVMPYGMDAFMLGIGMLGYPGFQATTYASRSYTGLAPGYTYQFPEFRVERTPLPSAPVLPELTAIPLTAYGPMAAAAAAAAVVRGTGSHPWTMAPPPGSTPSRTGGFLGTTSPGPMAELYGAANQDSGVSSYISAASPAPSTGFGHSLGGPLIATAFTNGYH

B1: M2 RNA (HVR MBE) (ssRNA)
RNA: GGGAUUUUAGUAGUGCUAUCCCCA
B1: binds.
